The data set has as its target T1, HEN1-K22A (Arabidopsis thaliana, UniProt Q9C5Q8 1-942, K22A).
T1 sequence: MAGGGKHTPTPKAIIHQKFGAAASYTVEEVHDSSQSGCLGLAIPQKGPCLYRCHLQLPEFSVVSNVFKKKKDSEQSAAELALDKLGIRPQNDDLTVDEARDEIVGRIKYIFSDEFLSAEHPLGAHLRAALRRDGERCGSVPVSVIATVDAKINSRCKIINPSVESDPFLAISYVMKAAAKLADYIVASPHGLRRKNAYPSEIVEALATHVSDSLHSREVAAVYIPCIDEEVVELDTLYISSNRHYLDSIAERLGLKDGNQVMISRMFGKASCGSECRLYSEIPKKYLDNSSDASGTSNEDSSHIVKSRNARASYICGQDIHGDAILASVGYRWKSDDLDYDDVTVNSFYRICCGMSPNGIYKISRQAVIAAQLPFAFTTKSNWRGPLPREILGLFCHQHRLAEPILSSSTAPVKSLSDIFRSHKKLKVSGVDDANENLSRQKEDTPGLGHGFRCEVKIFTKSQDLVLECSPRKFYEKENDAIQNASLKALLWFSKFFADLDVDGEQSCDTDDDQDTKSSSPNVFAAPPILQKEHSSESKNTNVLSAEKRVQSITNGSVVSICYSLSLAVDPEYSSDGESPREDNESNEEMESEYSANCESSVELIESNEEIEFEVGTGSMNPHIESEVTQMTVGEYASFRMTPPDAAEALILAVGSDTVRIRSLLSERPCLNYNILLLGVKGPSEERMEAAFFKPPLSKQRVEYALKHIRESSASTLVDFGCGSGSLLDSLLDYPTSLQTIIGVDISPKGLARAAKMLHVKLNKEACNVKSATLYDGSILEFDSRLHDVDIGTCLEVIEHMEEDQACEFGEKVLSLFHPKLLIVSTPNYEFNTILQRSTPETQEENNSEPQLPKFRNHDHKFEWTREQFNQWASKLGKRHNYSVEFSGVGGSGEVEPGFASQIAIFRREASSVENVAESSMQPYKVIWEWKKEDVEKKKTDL
The data set can be described thus: EMSA.

B1: miR173/miR173* (dsRNA)
RNA 1: UUCGCUUGCAGAGAGAAAUCAC
RNA 2: GAUUCUCUGUGUAAGCGAAAG
Turning to B1, the binding result is given as “binds”.

The values are drawn from article PMC4357707 (Nucleic Acids Research, 2015).
